In patent publication US20230103704A1, “HUMAN ANTI-IN[…] FOR THE […] OF IN[…] ISSUES” (priority 2020, published 2023):

B1: interferon gamma: human cytokine of 17 kD, 138 amino acids, SEQ ID NO: 14 (protein, listed as Homo sapiens)
chain: QDPYVKEAENLKKYFNAGHSDVADNGTLFLGILKNWKEESDRKIMQSQIVSFYFKLFKNFKDDQSIQKSVETIKEDMNVKFFNSNKKKRDDFEKLTNYSVTDLNVQRKAIHELIQVMAELSPAAKTGKRKRSQMLFRG
B2: dornase alfa: recombinant human deoxyribonuclease I, polypeptide produced in CHO cells, comparative example (protein, UniProt P24855 23-282, looked up)
Deoxyribonuclease-1: LKIAAFNIQTFGETKMSNATLVSYIVQILSRYDIALVQEVRDSHLTAVGKLLDNLNQDAPDTYHYVVSEPLGRNSYKERYLFVYRPDQVSAVDSYYYDDGCEPCGNDTFNREPAIVRFFSRFTEVREFAIVPLHAAPGDAVAEIDALYDVYLDVQEKWGLEDVMLMGDFNAGCSYVRPSQWSSIRLWTSPTFQWLIPDSADTTATPTHCAYDRIVVAGMLLRGAVVPDSALPFNFQAAYGLSDQLAQAISDHYPVEVMLK

Assay type: physicochemical
Settings: for MMAD / released dosage at the mouthpiece as share of the nominal value / released dosage: 0.1 mg/ml in physiological saline; for released dosage: at the mouthpiece; for time of aerosol release: corresponds to 30 strokes/breaths
Procedure: Aviptadil can be obtained, e.g., from Bachem AG, Bubendorf, Switzerland, in GMP quality.
The experimental procedure was carried out pursuant to Ph. Eur. 2.9.44 (Preparations for Nebulisation: Characterisation). A cascade impactor (Next Generation Impactor (NGI), Copley Scientific Ltd., Nottingham, UK) was used to determine the respective percentage for each fraction of the nebulized particles.
The thus generated aerosol was delivered to the cascade impactor by means of a mouthpiece (SK-211, NEBU-TEC, Eisenfeld, Germany).
The nebulization chamber (yellow stamp, 250 μl liquid discharge) was filled. The puff profile configured at the breath simulator was chosen in such a way that a correct simulation of inhalation by means of the nebulizer was ensured. The corresponding time was recorded.
Single values obtained for each cascade were added. […] MMAD, FPF and FPM were calculated from the obtained values: […]

Molecule	MMAD [μm]	released dosage at the mouthpiece as share of the nominal value [%]	released dosage [mg]	time of aerosol release [min]
Ac-Ser-Tyr-Ser-Met-Glu-His-Phe-Arg-Trp-Gly-Lys-Pro-Val-NH2 [α-melanocyte stimulating hormone]	3.11	45	0.045	3
Colistin [reference compound]	3.61	75	0.075	3
Gly-Leu-Ser-Lys-Gly-Cys-Phe-Gly-Leu-Lys-Leu-Asp-Arg-Ile-Gly-Ser-Met-Ser-Gly-Leu-Gly-Cys [C-type natriuretic peptide]	3.37	77	0.077	3
His-Ser-Asp-Gly-Ile-Phe-Thr-Asp-Ser-Tyr-Ser-Arg-Tyr-Arg-Lys-Gln-Met-Ala-Val-Lys-Lys-Tyr-Leu-Ala-Ala-Val-Leu-Gly-Lys-Arg-Tyr-Lys-Gln-Arg-Val-Lys-Asn-Lys [PACAP-38]	3.25	58	0.058	3
Ser-Pro-Lys-Met-Val-Gln-Gly-Ser-Gly-Cys-Phe-Gly-Arg-Lys-Met-Asp-Arg-Ile-Ser-Ser-Ser-Ser-Gly-Leu-Gly-Cys-Lys-Val-Leu-Arg-Arg-His [B-type natriuretic peptide]	3.46	69	0.069	3
Tyr-Arg-Gln-Ser-Met-Asn-Asn-Phe-Gln-Gly-Leu-Arg-Ser-Phe-Gly-Cys-Arg-Phe-Gly-Thr-Cys-Thr-Val-Gln-Lys-Leu-Ala-His-Gln-Ile-Tyr-Gln-Phe-Thr-Asp-Lys-Asp-Lys-Asp-Asn-Val-Ala-Pro-Arg-Ser-Lys-Ile-Ser-Pro-Gln-Gly-Tyr [adrenomedullin]	3.41	53	0.053	3
relaxin-3: human relaxin isoform, heterodimer of 51 amino acids, subunit 1 SEQ ID NO: 12 and subunit 2 SEQ ID NO: 13	3.36	49	0.049	3
B1	3.46	95	0.045	3
B2	3.72	65	0.065	3
